Two substances from article doi:10.1101/2025.10.17.683039 can be followed below.

The target in test [1] is Enoyl-CoA carboxylase/reductase (ECR) from Burkholderia ambifaria (Burkholderia ambifaria). As to the kind of experiment: SEC; S200 column; each protein alone (1 mL) and a mixture of equal volumes (500 uL each) of the two proteins; peaks compared. A general note: SEC sorts molecules by how far they enter the pores of the column.
In test [2] the target is Enoyl-CoA carboxylase/reductase (ECR) from Mesorhizobium metallidurans (Mesorhizobium metallidurans). The test is described as above.
Test [3] has the same target. As to the kind of experiment: crystal structure; apo ECR, space group C 1 2 1, 100 K, 1.40 Å, molecular replacement with PDB 6NA3.

Broadly, the stoichiometry N is the number of molecules, sites or subunits per partner or assembly. With “Enoyl-CoA carboxylase/reductase (ECR) from Burkholderia ambifaria (enzyme)”, the stoichiometry N in test [1] turned out to be 4.

In the case of “Enoyl-CoA carboxylase/reductase (ECR) from Mesorhizobium metallidurans (enzyme)”, the stoichiometry N in test [2] and in test [3] was 2 each time.
